Each sequence was assayed on K4 kissing-loop RNA reporter (assay: apparent KD of K4 kissing-loop reporter; higher = weaker reporter binding). Conditions: Eterna round: R107; input ligand: arginine 13.2 mM.
Protocol: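 RNA-MaP round R107: designed RNA switches with theophylline, tryptophan, arginine or FMN aptamers are transcribed on-chip within common flanks. They are titrated with a labelled K4 kissing-loop RNA reporter in RNA-MaP buffer (100 mM Tris pH 7.5, 80 mM KCl, 4 mM MgCl2), without ligand or with the indicated ligand. Median apparent KD per design.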
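Further: bound reporter read as fluorescence of individual clusters on recovered sequencing chips by microscopy, with normalized cluster intensities fitted with a binding model.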

Sequence	apparent KD of K4 kissing-loop reporter [nM]
UUAGAGAUCUCAGGAUAUGAGUGAUGUUGGUGUCAAGAUCUGAGAUAGAAUUCUAUCUCAGAUCAAUCAGAAGGGAGAUCUCAUU [AK2.2 Exc FMN B]	294
GGUAGCAUGGCGGCCGCCACUCUUCAUUAGUGAUGUUAAUGCCGAGUGCGCUAACUCCUACGGGAGAGGACCGGGCCAUGCUACC	4.43
AAAUAGAUCAGUCACCCAGUGAUGUUGGAAGGAGCGUGCGAAAGCACAGGUAGGUCGCCAAAACCUAAGUGGCUGAUCAAAAUAA [#SwitchBubble 4 #K4Early]	445
GCUAUGGUAGGAAGGAGCGCGGACGGUAUUUGUCGAGUGAUGUUCGAUUCUUUAAUUUGAACGCAGGUAGGUCGCCUACUAUAGC [Arginine B K4 30]	183
UGUCAUUGGUCGGCCGCCACUAGAAGGUCAAAGACCAUGGAGUGAUGUUCUAAGACGAAAGUCACUAGGACCGGGACCGAUGACU [TrypBS 5 #SwitchBubble #K4Middle]	689
AACCACUCGUUACAUCACUAUCGAGUGGAACGAGGACCGGUACGGCCGCCACUCGAUAACUUGCAGUGAUGUUGCAAGUAAGAAU [(T)''-(K)'-(T)'-(T1)-(T2)-(K1)-(K2)_Design9]	343

Same assay, conditions: Eterna round: R107; input ligand: none

Sequence	apparent KD of K4 kissing-loop reporter [nM]
GCCGUAGAUGGAAGGAGCGUGCCUUUCAGUUAUAGUGAUGUUAUAACCGAGGAACGGUUGGCACAGGUAGGUCGCCAUCUACGGC	109
AAUGUGCAGGGAAGGAGCGUAGUCCAGUGCUGUUGGAGUUAAAUACCAGUGAUGUUGGUUAUACAGGUAGGUCGCCCUAAAGCGC [whbob_Ex_Arginine_B_2th160]	158
GGCACGGGCUCGGCCGCCACUCCCGCGGGUCGAAAGGUCCGCUACUGAGUGAUGUUCGGUUGGAGGAGGACCGGGAGCCCGUGCC [#2 Exclusion - Tryptophan B Attempt #23 (HarryS)]	108
UGGAUAUAGUGAUGUUAUAUAGAGAUGGAUACCAGCAAAGAGAAUUGCCCUUGGCAGCCGAAAGAAGUAUCAUUAGAGAAGAAUG [ExTheophyl.Af]	278
GGCGGCCGCGCGCAAGCGCGGCCGGCCGAUACCAGCGCGACGGCGCGCCCUUGGCAGCGGCGCCGAGUGAUGUUCGGCCUGCCGU [#2 Same State - Theophylline A Attempt #15 (HarryS)]	146
UAGGGCAUCGCAGGAUAUCCUGCUUAACGUUGGAUUCCAGUGAUGUUGGAAAGCCGGCCUAGGGUAGGAGAAGGGCGGACUUGAA [Riteteve]	167
UGUGUUGUUUUGAUGUUUGGUGUUUGUUGGCAGGAUAUCGUAGAGGCGAGAAGGGCUUUGUUGCGGUAUGAGUGAUGUUUGUAGG [szzrmullin]	295
GGAAAUUGAUCAACGCAGUGAUGUUGCGAUACCAGACACAAAGCCGUCCCUUGGCAGCGCGGGACAUUAAUGGAUCUAUGGGUUC [theeternabot_exclusion_KL_Theo_A_26]	68.2
GAUAUAGUGAUGUUAUAUGGGAAGGAGUUACGAGGACCGGUACGGCCGCCACUCGAAACGAGUGAGGAUUUGGGAGAUUGGGUUU [SSTryptA.R]	376
UGUGAGCUGUCGACAAAAGUCGACUAAAGCGAGGAUAUGACGAAAGUCAGAAGGCGUCAAUAAUGGAGUGAUGUUCCUGCUCACU [FmnA 9 G29]	596
CGAGUCCUGAGGAGUGAUGUUCCUCGGCCACGAGGACCGGUACGGCCGCCACUCGUUACUCGGGCUUAGUAGCUAGCACUAAGCU [Quedmaon]	186
GGAGUUACCUGGGAUACCAGUCGGAGUCUCAGAGCUCGGAGUGAUGUUCUGGGAUGUUUCGGCCCUUGGCAGCUCUGGGACUCCA [#2 Exclusion - Theophylline B Attempt #16 (HarryS)]	863
AGCCUUACAUCGGCCGCCACUUCCCUGGCAGUGAUGUUGCCGUAGACAAUCAUUCUACCCUGGAGAAGGACCGGGAUGCAGAAAC [theeternabot_sameState_KL_Trp_B_8]	167
UUUGGAGUGGGAGGAUAUCCUAAUAUGGGUGAUGUUAGCGAUGUUGAAGGUGUAGUGAUGUUAUGCGGAGAAGGCCCACUGUAGA [BDazzled - #19 - Exc. FMN B]	131
AGAUGGAAUAGAAGGAGCGGCGCCAGUGAUGUUGGAUGCCGCGGGUGAAUCAGAUCAUAGUGCCAGGUAGGUCGCUAUUUCAGCG [Anedin]	106
AAAAUAAAUAGCAGUCAUGGAGUGAUGUUCCGAGGACCGGUACGGCCGCCACUCGACCAUCAUAAGAUGGAAUGGCGAGACUGCA [#SwitchBubble 22 #K4Early]	249
UGGAGUUGACGAAAAGUCAACUCCUGGGAAGGAGCGGACGAAAGUCCAGGUAGGUCGCCCACUACCAGUGAUGUUGGUACUCAAA	170
UGGAGUUGACGAAAAGUCAACUCCUGAGAUACCAGUGACGAAAGUCACCCUUGGCAGCUCACUGGCAGUGAUGUUGCGCGAUAAA [#23 K4 Theophylline A Same State]	364
GCCGUACGCAUGGAUACCAGUCUACAUCGCAGUGAUGUUGCGUAGUUCAGAUAGAUUGCCGACCCUUGGCAGCCAUGCGUACGGC	111
AGAACUGUCUUGGAUACCAGUGAUGUUGGUAUCGAUGUGUGAGUGCAAAGCGUCCCACAUCGCCCUUGGCAGCUAAGACUGUUCA [Omei KL Theo B Exc A v4]	302
GAUGAACUAUUCGAUACCAGACUACAUGAGUGAUGUUCAUGUGUGUCAAUGUCUAUGUCAGUCCCUUGGCAGCGAAUAGUUUAUC [KL-XTheo-B27]	125
